In test [1] the target is T1, p97/valosin-containing protein (human, UniProt P55072 2-806).
T1 construct: Endogenous protein detected by immunoblot in immunoprecipitates; also called VCP; VCP/p97
The test is described as follows: co-immunoprecipitation from bronchial brushings of ΔF508 CF subjects (IP gp78, immunoblot VCP). Here is the method:
(§1) Cells were lysed directly on plates using M-PER (Pierce Biotech. Inc., Rockford, Ill.) protein lysis buffer containing protease inhibitor cocktail (Roche) after three washes with ice cold PBS. CF bronchial brushings were transferred to lysis buffer. For immunoprecipitation, 500 μg/ml (cell culture)/50 μg/ml (bronchial brushings) total protein extracts were incubated with 50 μl of protein A/G agarose beads (Santa Cruz Biotechnology Inc., Santa Cruz, Calif.) for 3 hours at 4° C. After preclearing, 5 μg of respective primary antibody or pre-immune sera (negative control) was added to each tube. After 1 hour, protein A/G agarose beads (50 μL) were added to each tube and tubes were incubated overnight at 4° C. Beads were washed once with lysis buffer (20 mM Tris-HC1 [pH 7.6], 150 mM NaCl, 0.5% Triton X-100 and 10 μM phenylmethylsulfonyl fluoride [PMSF]) followed with two washes with phosphate buffer saline (PBS). The beads were suspended in Laemmli's sample buffer (30 μL) containing β-mercaptoethanol, vortexed for 1 minute, resolved by 4-10% SDS-PAGE and transferred to a 0.4-μm pore size nitrocellulose membrane.
A general note: Immunoblotting shows a protein as a band on a membrane.

The target of the next test is Hsc70 (human, UniProt P11142 2-646). The test is described as follows: co-immunoprecipitation from bronchial brushings of ΔF508 CF subjects (IP gp78, immunoblot Hsc70). Here is the method: as §1
Hsc70, sequence (P11142 2-646 limits assumed): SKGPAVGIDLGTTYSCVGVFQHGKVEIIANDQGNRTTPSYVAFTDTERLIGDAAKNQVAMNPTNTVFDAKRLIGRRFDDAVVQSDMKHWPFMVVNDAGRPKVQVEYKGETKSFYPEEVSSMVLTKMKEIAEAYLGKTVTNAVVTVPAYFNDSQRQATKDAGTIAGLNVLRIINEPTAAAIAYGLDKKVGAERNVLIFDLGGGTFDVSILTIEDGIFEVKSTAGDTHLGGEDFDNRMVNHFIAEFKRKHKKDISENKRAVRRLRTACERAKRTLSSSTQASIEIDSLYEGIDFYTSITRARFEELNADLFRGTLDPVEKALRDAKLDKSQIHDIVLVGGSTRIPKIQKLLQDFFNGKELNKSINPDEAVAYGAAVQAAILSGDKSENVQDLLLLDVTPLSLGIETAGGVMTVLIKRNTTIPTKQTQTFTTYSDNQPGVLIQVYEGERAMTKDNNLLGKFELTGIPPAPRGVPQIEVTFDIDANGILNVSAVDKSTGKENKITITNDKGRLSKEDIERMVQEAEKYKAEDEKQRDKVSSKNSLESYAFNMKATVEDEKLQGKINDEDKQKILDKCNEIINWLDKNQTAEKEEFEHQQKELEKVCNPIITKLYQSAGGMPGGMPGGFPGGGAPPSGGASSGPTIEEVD

T1 sequence (P55072 2-806 limits assumed): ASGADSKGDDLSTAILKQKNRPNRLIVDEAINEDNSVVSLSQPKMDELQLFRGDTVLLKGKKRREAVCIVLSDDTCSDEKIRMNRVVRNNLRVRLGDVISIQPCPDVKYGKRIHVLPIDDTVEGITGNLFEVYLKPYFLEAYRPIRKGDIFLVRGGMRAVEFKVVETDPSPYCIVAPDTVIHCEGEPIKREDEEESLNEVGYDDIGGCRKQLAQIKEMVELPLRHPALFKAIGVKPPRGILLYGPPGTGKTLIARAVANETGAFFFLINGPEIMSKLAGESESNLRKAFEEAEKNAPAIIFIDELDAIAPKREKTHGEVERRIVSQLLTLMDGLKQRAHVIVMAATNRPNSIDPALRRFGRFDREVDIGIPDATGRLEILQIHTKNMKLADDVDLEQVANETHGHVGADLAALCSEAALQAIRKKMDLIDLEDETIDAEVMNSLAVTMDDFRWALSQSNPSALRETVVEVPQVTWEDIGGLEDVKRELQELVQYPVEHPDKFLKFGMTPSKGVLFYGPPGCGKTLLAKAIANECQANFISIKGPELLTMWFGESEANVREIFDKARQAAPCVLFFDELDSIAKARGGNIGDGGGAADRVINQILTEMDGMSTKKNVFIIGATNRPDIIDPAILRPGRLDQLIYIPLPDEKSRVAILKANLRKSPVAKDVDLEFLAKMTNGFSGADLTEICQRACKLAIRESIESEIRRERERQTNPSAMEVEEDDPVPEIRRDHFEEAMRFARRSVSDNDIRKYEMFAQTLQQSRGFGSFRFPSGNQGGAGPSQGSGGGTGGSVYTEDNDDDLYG

B1: gp78 (enzyme, human, UniProt Q9UKV5 1-643, looked up)
chain: MPLLFLERFPWPSLRTYTGLSGLALLGTIISAYRALSQPEAGPGEPDQLTASLQPEPPAPARPSAGGPRARDVAQYLLSDSLFVWVLVNTACCVLMLVAKLIQCIVFGPLRVSERQHLKDKFWNFIFYKFIFIFGVLNVQTVEEVVMWCLWFAGLVFLHLMVQLCKDRFEYLSFSPTTPMSSHGRVLSLLVAMLLSCCGLAAVCSITGYTHGMHTLAFMAAESLLVTVRTAHVILRYVIHLWDLNHEGTWEGKGTYVYYTDFVMELTLLSLDLMHHIHMLLFGNIWLSMASLVIFMQLRYLFHEVQRRIRRHKNYLRVVGNMEARFAVATPEELAVNNDDCAICWDSMQAARKLPCGHLFHNSCLRSWLEQDTSCPTCRMSLNIADNNRVREEHQGENLDENLVPVAAAEGRPRLNQHNHFFHFDGSRIASWLPSFSVEVMHTTNILGITQASNSQLNAMAHQIQEMFPQVPYHLVLQDLQLTRSVEITTDNILEGRIQVPFPTQRSDSIRPALNSPVERPSSDQEEGETSAQTERVPLDLSPRLEETLDFGEVEVEPSEVEDFEARGSRFSKSADERQRMLVQRKDELLQQARKRFLNKSSEDDAASESFLPSEGASSDPVTLRRRMLAAAAERRLQKQQTS
notes: also called AMFR; AMFR/gp78
As to B1, the binding result (in test [1]; with Hsc70) was “no binding” each time.

The record behind these values is patent publication US20100222408A1 (Johns Hopkins, published 2010).
